Assay: label from the status in PepcDB records

Row | Sequence | protein production
1 | MELKNKKLSLWEAVSMAVGVMIGASIFSIFGVGAKIAGRNLPETFILSGIYALLVAYSYTKLGAKIVSNAGPIAFIHKAIGDNIITGALSILLWMSYVISIALFAKGFAGYFLPLINAPINTFNIAITEIGIVAFFTALNFFGSKAVGRAEFFIVLVKLLILGLFIFAGLITIHPSYVIPDLAPSAVSGMIFASAIFFLSYMGFGVITNASEHIENPKKNVPRAIFISILIVMFVYVGVAISAIGNLPIDELIKASENALAVAAKPFLGNLGFLLISIGALFSISSAMNATIYGGANVAYSLAKDGELPEFFERKVWFKSTEGLYITSALGVLFALLFNMEGVASITSAVFMVIYLFVILSHYILIDEVGGRKEIVIFSFIVVLGVFLLLLYYQWITNRFVFYGIIATFIGVLIFEIIYRKVTKRTFSNNMYVKS | not failed
2 | MHYQPKQDLLNDRIILVTGASDGIGREAAMTYARYGATVILLGRNEEKLRQVASHINEETGRQPQWFILDLLTCTSENCQQLAQRIAVNYPRLDGVLHNAGLLGDVCPMSEQNPQVWQDVMQVNVNATFMLTQALLPLLLKSDAGSLVFTSSSVGRQGRANWGAYAASKFATEGMMQVLADEYQQRLRVNCINPGGTRTAMRASAFPTEDPQKLKTPADIMPLYLWLMGDDSRRKTGMTFDAQPGRKPGISQ | failed
3 | MLYLFPLLAVVIWAGNAIVNKLSFGIIAPEAIAFYRWFFAMLILTPFMLKSVWKNRRRIIPLLPKLATLASLGMVLNQSLAYFAAATTTATNMALINSLVPMISLFLAVPLLKQRLSPLVLGGSVISLLGLVFMLSHGDIANLAIGVTEGDLLLLISAFVYALYGVLLKRWQLPISTWESVYIQGIIAVLMLTPLLFSAPSIAISSQATPLIVYAAFGASLIAPWAWINGINKLGAERTSIFFNLMPILAAIFAAIILNETLAIYHYLGGTMVILGVMLVQIKPKPKTTTIITCAE | failed
4 | MYDFKKINNLRGIERETLRVTDCGNLATSNHPDGLGHKLTNNSITVDFSENLLELITKPHDSIDKAIGELYQLSAFTLDNMHSDEIILNTSMPLSANDNDIQEADFGSSNSGRMKRVYRKGLSARYGKIMQIISGIHYNFSFDKDLISNIATNKQVSISDIYFDVLNNYFEFMWLLPYLFGASPICAKTSVKNKPDYLSVLDDKFYVGEYATSLRMSDLGYTSPAQKDLAISYDNVKAYVKDLIQATDDTFADYKRIGLYNSQGQRIQLNDGILQIENEYYSAIRPKQIAKRGERPACALYNRGVEYVEVRVLDVDPFEPVGISKDTALFVEVMLMTCLDKDAKKYHKDIIKQAKQNLTAVAIQGRNPQLKLKKLDDDSEILLKDYALELFDEIEAVAKKMPKEYLDAVEIQKRKVLDISQTPSAKIIELARQHGYKKFILDISRRVSQQFRSYELPAAIVAKLKDQAGQSVAAEKELVANDKISLDEYINRYYKSSKGCC | not failed
5 | MLNLFILLLERVGLIILIAYILMNINHFKTMMNEREKRRSQWQLIIIFGCFSMISNFTGIQIRGDEIINGTVYNHLDPDASLANTRVLTIGVSGLIGGPFVALAVAVISGMYRVYIGGADAYIYLISSIFIALISGYFGYKAMRANRYPTIVKGACIGGTTEIIQMLCILLFSDNTEHAWTLVKLIAIPMISINSIGTAIFLSIILSTIKQEEETRAIQTHDVLQLANQTLPYFRSGLNEQSAKKAAEIILNLMRVSAVAITNRKDILTHVGVASDHHVAQKAIITNLSKRAIQSGTLKEAYSSEEIGCNHPGCPLEAAIVVPLRVKNDVVGTLKLYFTNKYDVNYSDKQLATGLAEIFSSQLELGQAETQSALIRDAEIKSLQAQVNPHFFFNAINTISALIRIDSEKARELLLQLSQFFRSNLQGARNNTISLEKELQQVESYLSLEQARYPDRFNVSFDIDRTCYGALVPPFAIQILVENAIKHAFKNRKYNNEIIVKAHKAQTGLVISVSDNGHGIPYEKLDKIGKTSVHSESGTGSALENLNRRLDGLFGYEASLQIHSDHQGTQVSCTIPYHNLEEEKIESNHCR | failed
6 | MAPPSDSDPREPSPPLFQGRGLTKRFGSFVANQAIDLDIAGGEVHALLGENGAGKSTLVKLITGLLQPDDGRMIWRGTPISFAGPAEARACGIAAVSQHFALFDNLTVVENVALGLDRRISVGRLATELEQISQRYGLPLDPKREVWRLSVGERQRIEIVRALLQNPQLLILDEPTAVLTPAEADRLFDVLQRLRADGRALLYISHKLDEVKRLASVATILRAGRVVGSCDPRQESAASMARMMVGSDVTAPKQSSHSIGGPLLSVSGLTQRPDDPHGVTLRDIALEVRSGEIVGIAGVAGNGQDELFAALSGETPIAQSDVIHIAGEAAGSLSINQRRRLGAAFVPEQRLGHATVPTMSLSDNALLTGHATGALVKFGLVNRGAALALVDRVSEAFDVRKASRDPEAARLSGGNLQKFIVGREILRQPRLLIVDQPSWGLDAGAASAIRQALLDLAASGAAVLVISQDLDELIEIADRIAVMFHGRLSPPRPVSEIGRDQLGLLMGGSGWPAEVRDVAGALEHHHHHH | failed
7 | MPTALGYVSIGLACGIIGAPYVTPVEMGLMSLFVYAGSAQFAMLALIVVQAPVAAIAMTVFLINLRLFLLSLHASTYFRHTSLWYNIGMSSILTDETYGVLMGELAHTDKVNPMWMHGNNLNSYVAWFVGTVVGTALGGLLPNPEIFGLDFALVGMFIGIFASQFQIMQRRIPVRNLLIILAVVAVSFFLLLTVMSQSLAVLFATLLGCSMGVVLDGQ | failed
8 | MDKIRSLRFFIATLEGGSFAAAAKAYGTDPSTVSKAIHRLESDLGIQLFQRSTRQIRLTEAVRRYANTARFVLDELAACEDSLKSHNDALSGLLKINVPVSYGRLYIRPLLKEFCRRYPSITIDIHYDDAYVDIIEQGIDVSIRSGVVQDSQLIVRQLSPIDFIICGSQDYLTRHGVPSGPDAFNDHSWVRFRFKQTGKLLPIRMPEPDGTSEYNPERNFIVNDGESMAELCAEGLGLTQIPHFIARDWLKVGRLVPIFPSMRQAGNGVYLLYANREYVPARVRVFIDFITQAIQDMDETPFHTWAETLPIYQPNQGD | failed
9 | DDNNAAEVDRQVAQDSAEPKTGENAAAGDSSSTNKNAEKIVAVDISAETEKTYLTHVANDMVIPAYADAAKQSDLLHDLAQKHCQKAPVSGDELQALRDQWLVLAQAWASAEMVNFGPATASMSNLYINYYPDERGLVHGGVADLITANPALTAEQLANESAVVQGIPGLEEALYANDSLDAGQCAYVMSASSALGTRLKDIEKNWQQNAIKLLAIDKTAESDQGLNQWFNSLLSLVETMKSNAIEQPLGLSGKAKGHLPAATAGQSRAIINAKLATLNKAMTDPVLTAILGSNNENTVADTLSTALADTTALLAQMPEDLATADKATQQELYDHLTNITRLIKSQLIPTLGIRVGFNSTDGD | not failed
10 | MSTVAFHTLGCKVNHYETEAIWQLFKQGGYERTEYEKKADVYVINTCTVTNTGDKKSRQVIRRAVRQNPDAVICVTGCYAQTSPAEIMAIPGVDIVVGTQDREKMLGYIEEFRKERQPINAVRNIMKTRVYEELDVPYFTDRTRASLKIQEGCNNFCTFCIIPWARGLMRSRDGKEVIKQAQQLVDAGYKEIVLTGIHTGGYGEDIKDYNLAGLLRDMEAEVGGLKRLRISSIEASQISDEVIEVLDKSEVVVRHLHIPLQSGSNTVLKRMRRKYTMEFFQERLDRLKEALPGLAITSDVIVGFPGETEEEFMETYNFIKENRFSELHVFPYSKRTGTPAARMEDQVPEDVKNDRVHRLIELSNQLAKEYASQFEGEVLEIIPEEQFKEGDREGLYVGYTDNYLKIVFEGSEELIGKLVKVKITKAGYPYNEAQFVRVLEDDVKKESASALEHHHHHH | failed
11 | MHETKVKLSNGLELHVEVGGNPDHPTILLIMGLGAQMLFWPDFFCKSLIDQGFYVIRFDNRDIGLSSKIRHKGKRLNTLKLMSRFTLGLGNQGAPYTLYDMAEDVSLLLEAMRIKKVNVIGASMGGMIAQIIAAKYPEKVEKLALMFTSNNQPLLPPPFPKQLFSLIGKPKSSDEDGIINHSLKLFEIIGSPGYVNQVEAIQTARKLYQRSYHPAGVLQQFLAILCTGSLLQLDKQISQPTLVIHGSRDRLLPPSHGKAVAKAIKGAKFELIQGMGHDIPPHFIPQLSYLFAHHFRS | failed
12 | MKLETIDYRAADSAKRFVESLRETGFGVLSNHPIDKELVERIYTEWQAFFNSEAKNEFMFNRETHDGFFPASISETAKGHTVKDIKEYYHVYPWGRIPDSLRANILAYYEKANTLASELLEWIETYSPDEIKAKFSIPLPEMIANSHKTLLRILHYPPMTGDEEMGAIRAAAHEDINLITVLPTANEPGLQVKAKDGSWLDVPSDFGNIIINIGDMLQEASDGYFPSTSHRVINPEGTDKTKSRISLPLFLHPHPSVVLSERYTADSYLMERLRELGVL | not failed
13 | MLQYILAEHPFFVATGALYAAAAGFYAAAWRSTRALVGRAATALLCAALAFNAGLIVERWIEAGRAPFKSLFESLVFFAFTTGVVYLAFERLYRTRVFGALAALLTLALLGYALGKWDAEIVKLPPALQSAWFVPHVVVYFVGYAAVSLAALLAAVQLLAPRVPLLQRLTTLRAGTILTGKALDLEQMTYELIRFGFVLLTVGLLVGSVWAKSAWGDFWVWDPKENWSLVTWLVYGAYLHLRKVRGWRGDRAAWLVLLGFAVVMFTYLGMSMLPTAEESAHVYTG | failed
14 | MIFASDLDQTLIYSRKSFRAHIEDNSIQLIETLDGKEISFITYKTITLLIKLQLHSYFIPVTTRTIEQFQRITLFQNEIIPEYAITSNGGNILHNGKQDVTWNKEIKKRISVECIERNDILKEFEQIAHKDWVISQKTADDLFHYCIIKRENIPYDELSSFTSWLDKQGWNHSLQGRKLYFVPKPINKWDAVQYIQEILQMDTIITAGDSLLDLCMLEKANYAFAPLHGELGATYNHLQPHIVKTDAIGIYAAEEIVSKSLQIIHSSSPTS | failed
15 | GHMAIQRRIRRVKTVQMTTNSPIHRSGSVLEPGNWQEYDPFLLLMEDIFERGTFDVHPHRGIETVTYVISGELEHFDSKAGHSTLGPGDVQWMTAGRGVVHKEDPASGSTVHSLQLWVNLPSAYKMTEPRYQNLRSKDMPVRKEEGATIRVFSGSSKGVKAPTKNIVPVTMVEMIVEPGTTVVQDLPGHYNGFLYILEGSGVFGADNIEGKAGQALFFSRHNRGEETELNVTAREKLRLLLYAGEPVNEPVVAYGPFVMNTPEQIREAIRDYQEGRFGR | not failed
16 | MVALPDWMALAPALSLALASLVLLLADSIDPDSTNTGLLAGISVLGSLLSFGFAGWFITAGTGMADNTGVALFNSQLVVDQMALFFMAIVGSVTTLVVLASYDYITEHSYQAEFFALVLLSATGMSLLSAANSLATAFVALELVSLPSYALVAFLKENKGSVEAGLKYFLIGAVSSAVLAYGISLVYAATGVLRFDGVATAISSGTIQTISEGSIQAQSGDPAVPMAILGVGILMIIGGVAFKTASVPFHFWAPEAYEGAPAPISAFLSSASKAAGFVLAFRAFAVAFPIGDLLAAGGAINWVMAFQILAIATMFIGNFAAATQETVKRMLAYSSVGHAGYVLIGLAAVSGSGEGLSLSLSAGMSHLLVYGFMNTGAFLFIALAEYWGVGRRFEDYNGLGKEAPVACAAMTVFLFSLAGLPIGGGFFSKFYLFSATLNVGAWSLAAALIINSALSLFYYSRVVKAMWIEEPTGSRTIESYPMGLYTAVVGAAIVTVLLVPGFNRVSEIAFQAAQLL | failed
17 | MSEMIYGIHAVQALLERAPERFQEVFILKGREDKRLLPLIHALESQGVVIQLANRQYLDEKSDGAVHQGIIARVKPGRQYQENDLPDLIASLDQPFLLILDGVTDPHNLGACLRSADAAGVHAVIVPKDRSAQLNATAKKVACGAAESVPLIRVTNLARTMRMLQEENIWIVGTAGEADHTLYQSKMTGRLALVMGAEGEGMRRLTREHCDELISIPMAGSVSSLNVSVATGICLFEAVRQRS | not failed
